Measurements published in patent US20220306753A1 (JN BIOSCIENCES, published 2022).

Key:
[1] = target: T1, Human B7-2/CD86 Protein, Fc Tag (human, UniProt P42081 24-247); experiment: ELISA, plate coated with 1 µg/ml CD86 Fc tag protein, anti-human kappa-HRP detection
T1 construct: Bought protein coated on the ELISA plate; also called Cat. No. CD6-H5257, Acro Biosystems; not shown: Fc tag of the bought protein
T1 sequence (looked up): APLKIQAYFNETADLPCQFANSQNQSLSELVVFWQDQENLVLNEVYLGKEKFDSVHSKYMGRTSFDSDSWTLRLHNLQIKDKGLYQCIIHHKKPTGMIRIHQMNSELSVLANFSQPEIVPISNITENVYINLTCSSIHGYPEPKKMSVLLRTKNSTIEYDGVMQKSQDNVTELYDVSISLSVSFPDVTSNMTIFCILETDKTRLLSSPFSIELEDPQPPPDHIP
Protocol: (§1) Binding of HuABC2-CTLA4 and HuABC2-CTLA4YE to human CD122, CD80 and CD86 was analyzed by ELISA. Wells of an ELISA plate were coated with 1 μg/ml of either CD122 (Human IL-2R beta/CD122 Protein, Fc Tag; Cat. No. ILB-H5253, Acro Biosystems, Newark, Del.), CD80 (Human B7-1/CD80 Protein, Mouse IgG2a Tag; Cat. No. B71-H52A4, Acro Biosystems) or CD86 (Human B7-2/CD86 Protein, Fc Tag; Cat. No. CD6-H5257, Acro Biosystems) in PBS. After blocking with Blocking Buffer and washing the wells with Wash Buffer, transiently expressed HuABC2-CTLA4 and HuABC2-CTLA4YE at 0.5 μg/ml and serial 2-fold dilutions in ELISA Buffer were applied to the wells in duplicates. Purified HuABC2 at 0.5 μg/mland serial 2-fold dilutions was used as a control. After incubation for 1 hr at room temperature and washing with Wash Buffer, bound antibodies were detected using HRP-conjugated goat anti-human kappa chain polyclonal antibody. After incubation for 30 min and washing with Wash Buffer, color development was initiated by adding ABTS substrate and stopped with 2% oxalic acid. Absorbance was read at 405 nm.

[2] = target: T2, Human B7-1/CD80 Protein, Mouse IgG2a Tag (human, UniProt P33681 35-242); experiment: ELISA, plate coated with 1 µg/ml CD80 mouse IgG2a tag protein, anti-human kappa-HRP detection
T2 construct: Bought protein coated on the ELISA plate; also called Cat. No. B71-H52A4, Acro Biosystems; not shown: mouse IgG2a tag of the bought protein
T2 sequence (looked up): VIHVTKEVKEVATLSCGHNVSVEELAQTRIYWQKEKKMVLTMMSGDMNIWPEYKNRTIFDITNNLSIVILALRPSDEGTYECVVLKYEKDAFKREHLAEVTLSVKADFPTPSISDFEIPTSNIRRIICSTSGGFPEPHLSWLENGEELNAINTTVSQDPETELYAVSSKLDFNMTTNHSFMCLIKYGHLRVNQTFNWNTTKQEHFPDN
Protocol: as §1

[3] = target: T3, Human IL-2R beta/CD122 Protein, Fc Tag (human, UniProt P14784 27-239); experiment: ELISA, plate coated with 1 µg/ml CD122 Fc tag protein, binder from 0.5 µg/ml in 2-fold dilutions, anti-human kappa-HRP
T3 construct: Bought protein coated on the ELISA plate; also called Cat. No. ILB-H5253, Acro Biosystems; not shown: Fc tag of the bought protein
T3 sequence (looked up): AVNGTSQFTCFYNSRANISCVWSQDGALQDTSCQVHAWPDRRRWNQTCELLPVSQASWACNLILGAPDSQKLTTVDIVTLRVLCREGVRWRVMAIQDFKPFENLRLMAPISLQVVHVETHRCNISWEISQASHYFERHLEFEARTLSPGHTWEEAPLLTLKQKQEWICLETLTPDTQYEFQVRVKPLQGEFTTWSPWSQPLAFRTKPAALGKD
Protocol: as §1

binding result [3]: binds
B1: HuABC2 (antibody, human IgG1, kappa, V domains shown)
VH: EVQLVESGGGLVQPGGSLRLSCAASGFTFSDFYMEWVRQAPGKGLEWIAASRNKANDYTTEYSASVKGRFIVSRDDSKNSLYLQMNSLKTEDTAVYYCARSYYRYDGMDYWGQGTTVTVSS
VL: EIVLTQSPATLSLSPGERATLSCSAISSVSYMYWYQQKPGQAPRLLIYDTSNLVSGVPARFSGSGSGTDYTLTISSLEPEDFAVYYCQQWNTYPYTFGGGTKVEIKR
notes: Human IgG1/kappa, wild-type Fc, expressed from pHuABC2p in CHO-K1 and purified on protein A; also called humanized anti-CD122 IgG1/kappa monoclonal antibody
binding result [1]: no binding (tested: 0.5 µg/ml and serial 2-fold dilutions)
binding result [2]: no binding (tested: 0.5 µg/ml and serial 2-fold dilutions)
